Measured values: the supplement of paper PMC9732359
± gives the uncertainty stated by the source.

Assay: protein stability index of a GFP-peptide fusion (yeast GPS) (PSI 1-4); higher = more stable; sorted into four equal gates, so the index is relative within each strain
In short: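 Sequencing reads from sorted gates were used to score each peptide. The library consisted of tiled 17-residue yeast protein peptides fused downstream of GFP on a Cherry-expressing plasmid, pooled and carried in yeast. Mid-log cultures in leucine-free medium were split into four equal gates by GFP/Cherry ratio, and each gate's plasmids were PCR-amplified and Illumina-sequenced. The protein stability index adds up, over all gates, the read frequency multiplied by the gate number.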

Sequence	protein stability index (doa10∆)	protein stability index (pdr5∆)	protein stability index (san1∆)	protein stability index (ubr1∆)
QIVDIRNKRAVQLPILK [YJL039C/NUP192]	2.2 ± 0.1	2.04 ± 0.053	1.43 ± 0.056	1.92 ± 0.058
PGVNREINSEMCHIVRK [GRR1]	3.01 ± 0.096	3.05 ± 0.082	3.35 ± 0.059	3.12 ± 0.052
ILATNSLRILAKLSERS [YJL039C/NUP192]	2.39 ± 0.062	2.67 ± 0.062	2.49 ± 0.085	2.67 ± 0.053
DLQKLLKGIQEFGADWY [SWI3]	3.1 ± 0.062	3.07 ± 0.056	3.09 ± 0.043	3.22 ± 0.053
PGWDFETEEIDPELLRS [RPL5]	3.34 ± 0.13	3.19 ± 0.081	3.11 ± 0.057	2.77 ± 0.17
KLLASTEENKANTNSVT [YIL149C/MLP2]	3.32 ± 0.083	3.24 ± 0.066	3.25 ± 0.056	3.32 ± 0.036
MSPLECRNILGVTSLIK [RPP1]	2.23 ± 0.052	1.96 ± 0.054	1.84 ± 0.079	2.08 ± 0.044
GDIKVLDSNFNLQREID [RPN14]	2.96 ± 0.12	3.11 ± 0.091	2.93 ± 0.085	3.26 ± 0.082
DLAFGGEANKHHWEDLQ [RPN5]	3.09 ± 0.12	3.31 ± 0.16	3.07 ± 0.11	3.21 ± 0.091
SYAGISTDKLVQCHGSF [SIR2]	2.57 ± 0.12	2.76 ± 0.11	2.78 ± 0.13	2.98 ± 0.092
KDIVNISIPKTCDEIQN [REC8]	2.81 ± 0.067	2.74 ± 0.056	2.54 ± 0.05	2.84 ± 0.042
QLYESGNPVNDANLLGA [COR1]	2.53 ± 0.059	2.65 ± 0.057	2.42 ± 0.069	2.81 ± 0.044
IKNVIVSNRVAAPARAG [RPP0]	1.82 ± 0.13	2.44 ± 0.11	3 ± 0.14	1.96 ± 0.22
AVHSIIALSRRFLLNGR [YDL116W/NUP84]	2.11 ± 0.086	1.56 ± 0.069	2.06 ± 0.14	1.99 ± 0.085
TFSPSGKLGQIDYALTA [PRE8]	2.61 ± 0.14	2.26 ± 0.092	2.67 ± 0.12	2.85 ± 0.064
SQVYAIRQAIAKGLVAY [RPS16A]	2.22 ± 0.069	2.35 ± 0.071	2.27 ± 0.1	2.42 ± 0.055
GLSTDHTTQIVNLEDNT [YML103C/NUP188]	2.89 ± 0.074	2.99 ± 0.078	2.88 ± 0.053	3.04 ± 0.047
RVRHEDVETVKREIQEA [RPC53]	–	3 ± 0.17	–	–
LNAITLDGDRADKRGVL [SMC3]	2.94 ± 0.15	3.1 ± 0.17	–	3.03 ± 0.097
AQAFVELENSSPELKAE [RPS7A]	3.08 ± 0.23	–	–	–
GLFEKSTVSANHSNNDI [BRN1]	3.12 ± 0.14	2.95 ± 0.11	3.19 ± 0.08	3.11 ± 0.12
LNRLPAASLGDMVMATV [RPL23A]	1.6 ± 0.1	1.78 ± 0.072	2.52 ± 0.17	2.11 ± 0.057
PPEVTSSNCHVRQKIKT [POP1]	3.05 ± 0.071	3.1 ± 0.072	2.78 ± 0.073	3.01 ± 0.045
ANTPVLRKSELEYYAML [RPL30]	2.57 ± 0.096	2.99 ± 0.093	2.23 ± 0.095	2.81 ± 0.076
IDGPKAGVPRQAINLGQ [RPL14A]	3.58 ± 0.14	3.29 ± 0.11	2.69 ± 0.11	3.31 ± 0.1
LNEALLQCPMLYVESTG [CSN12]	1.47 ± 0.088	1.26 ± 0.09	1.23 ± 0.15	1.19 ± 0.054

Sequence	protein stability index (doa10∆)	protein stability index (pdr5∆)	protein stability index (san1∆)	protein stability index (ubr1∆)
DFSIRKTCAKSVIQLCG [ECM29]	1.84 ± 0.12	1.91 ± 0.13	2.05 ± 0.22	–
TIVQLCKKKEMSQYQST [YIL149C/MLP2]	1.88 ± 0.063	2.14 ± 0.061	1.76 ± 0.091	1.8 ± 0.052
RALYTPFLLMELHKKLV [YDL116W/NUP84]	1.82 ± 0.094	1.45 ± 0.087	1.29 ± 0.22	1.26 ± 0.13
YSILGDRFKYRSVDRAG [POP4]	–	2.93 ± 0.23	3.45 ± 0.13	–
HHYEECAERVKIQQQQP [QCR6]	3.25 ± 0.12	3.04 ± 0.18	2.85 ± 0.11	3.13 ± 0.15
FNAIDLARHLPAELDLR [RPC82]	2.46 ± 0.09	2.56 ± 0.076	2.29 ± 0.083	2.99 ± 0.11
LSRLQKSGRINGFHGRL [SMC4]	3.26 ± 0.15	3.57 ± 0.15	3.29 ± 0.081	3.19 ± 0.064
PQEESVSPNISSASPSA [SIR3]	2.99 ± 0.048	3.15 ± 0.046	3.01 ± 0.034	3.03 ± 0.028
FDTDWNPHQDLQAQDRA [SNF2]	3.07 ± 0.068	3.16 ± 0.056	2.94 ± 0.037	3.35 ± 0.05
LKHKSICSCVNRGVKLE [RPP1]	2.31 ± 0.068	2.75 ± 0.051	2.57 ± 0.068	2.68 ± 0.034
ALSKFLTHPKYLNSRII [YML103C/NUP188]	1.16 ± 0.057	1.32 ± 0.077	1.38 ± 0.093	1.58 ± 0.066
LEGKGSLEEIIAEGQKK [RPP2B]	2.5 ± 0.12	2.17 ± 0.072	3.1 ± 0.076	2.72 ± 0.046
FNPYGDNGGTILGIAGE [PRE7]	3.37 ± 0.1	3.24 ± 0.11	3.24 ± 0.16	3.28 ± 0.064
TLDREYITLKATFLKDD [QCR2]	1.38 ± 0.065	1.44 ± 0.045	1.51 ± 0.1	1.5 ± 0.048
MDALYEKIWFAISKENL [SIR3]	2.21 ± 0.06	1.95 ± 0.052	1.51 ± 0.088	1.27 ± 0.047
CQEEVSTIEKDMKEYDS [SMC2]	3.39 ± 0.12	3.51 ± 0.084	3.42 ± 0.081	3.63 ± 0.095
NYGEKEERKRWAMQGIS [PCI8]	2.92 ± 0.14	2.52 ± 0.24	–	–
GQLVELYVPRKCSATNR [RPS21A]	2.46 ± 0.2	1.32 ± 0.19	1.13 ± 0.22	1.38 ± 0.069
ANTPSIPTNPVDNENNK [SWI3]	2.62 ± 0.08	2.8 ± 0.068	2.68 ± 0.053	3.08 ± 0.071
MSISLESSKALADSLDR [DIS3]	2.53 ± 0.067	2.8 ± 0.074	2.52 ± 0.096	2.45 ± 0.071
SNTSTLKNMLYVLSTAV [BRR2]	1.57 ± 0.066	1.53 ± 0.09	1.17 ± 0.18	1.38 ± 0.059
INLTKVTQKDICILGIL [CSI1]	2.78 ± 0.07	2.83 ± 0.07	3.03 ± 0.059	3.11 ± 0.15
LDPNLITLALSSNPNSS [SRB4]	2.31 ± 0.067	2.86 ± 0.095	2.4 ± 0.084	2.56 ± 0.11
VDKSRKVAHTSYKRIYG [PRE8]	3.31 ± 0.11	3.13 ± 0.13	3.28 ± 0.17	3.13 ± 0.093
TSTNPNGLGTSHINTNV [ARP7]	3.14 ± 0.068	3.28 ± 0.061	2.96 ± 0.061	3.33 ± 0.057
